# Results as given in PMC314469, “Protein Interaction Networks by Proteome Peptide Scanning” (PLoS Biology, 2004).
# T1: amphyphisin SH3 (AMPH_HUMAN), P49418
# T1 chain: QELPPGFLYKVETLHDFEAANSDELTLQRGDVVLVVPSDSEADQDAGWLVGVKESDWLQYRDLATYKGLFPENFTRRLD
# Biological target: T1, amphyphisin SH3 (AMPH_HUMAN), P49418
# Assay: SPOT array
row,"normalised SPOT signal, Boehringer light units (BLU); mean over the file's lines of this peptide",Binder
1,326,HKGLPPRPPSHNRP [Q9P2Q2 580-594]
2,116,HSDYLNRPHKSIHR [P21675 1363-1376]
3,58.3,HAQSLSRPLKQTPI [O60292 454-467]
4,125,HPLVPKRPDASFMA [P54368 201-214]
5,299,ALPSPLRPPAPPLP [Q9NR83 285-299]
6,26,HGRGLKRPGKKGSN [Q99848 277-290]
7,7.5,AAPEPKRPHIAQVP [Q9Y6X8 414-427]
8,49.7,HVQSPEKPPTSPRE [BAC05287 132-146]
9,33.8,HGRLPARPPFYAPA [Q9Y2L9 5-19]
10,36.2,HAPRIKRPRLQVVK [Q96S08 292-305]
11,12.1,HILLFRRPLPKDQQ [P33552 65-78]
12,17.3,HLWQPKRPAVPKKA [Q96FM3 493-506]
13,202,HSFLINRPGKVKYM [Q9H5T1 190-203]
14,1070,HKAHLIRPRRLTPG [O60281 1125-1138]
15,95.5,HLSSPARPPDNLSP [Q9H7P8 659-673]
16,75.1,HPEFLSRPIKPSPP [P17812 526-539]
17,29.9,HPDLLRRPGARSTS [Q9BXK1 213-226]
18,17.6,HHPWIRRPFFPFHS [P02511 6-19]
19,4580,HALHPARPARDHLD [Q9H7M8 395-408]
20,1690,HLLLFHRPLRASGA [Q9HBK7 243-256]
21,18,HHHLPERPPFIPEG [O60747 405-419]

row,"normalised SPOT signal, Boehringer light units (BLU); mean over the file's lines of this peptide",Binder
1,9960,HQEKPERPLRGGKS [Q9NWA6 173-186]
2,50.5,HTVELRRPSSDMEG [O14791 6-19]
3,58,HRSHLRRPAAPPSP [Q8WWE0 14-27]
4,5140,HYLVPVRPRRQIVY [Q9Y4V7 156-169]
5,3230,HGKGFSRPARPANR [O43158 529-542]
6,36.5,HLAFLKRPELGLTL [O15488 104-117]
7,35.4,HGRAPRRPSGPGPP [P21917 231-244]
8,4870,HVFQFTRPPRETPT [O75354 116-129]
9,3540,HIPPPPRPPKRILE [P18031 304-318]
10,847,ALPPPPRPDRGPPG [Q02833 302-315]
11,160,HHGRIGRPPKYRKI [Q9Y4C9 401-414]
12,110,HTKNLLRPTKLNLQ [Q9BXU7 768-781]
13,553,ALPRPLRPPLPPDP [O43763 237-251]
14,217,HLHILHRPWKSGLS [Q9P2Y4 181-194]
15,8230,HDDPPQKPPRSITL [Q9Y5K9 654-668]
16,34.4,HILLFRRPLPKKPK [P33551 65-78]
17,57.4,HPGKPERPPPQGGN [P10163 94-108]
18,7780,ALPRPIRPHRNISA [O75163 275-288]
19,2890,HSTGINRPKRTGSL [P28749 775-788]
20,45.7,HTAEFRRPMATGDT [Q9H6N9 66-79]
21,2390,HGSFLARPSRKNQG [P29350 24-37]

# Biological target: endophilin SH3 (SH3G2_HUMAN), Q99962
# Assay: SPOT array
row,"normalised SPOT signal, Boehringer light units (BLU); mean over the file's lines of this peptide",Binder
1,5020,HKGLPPRPPSHNRP [Q9P2Q2 580-594]
2,89.2,HSDYLNRPHKSIHR [P21675 1363-1376]
3,153,HAQSLSRPLKQTPI [O60292 454-467]
4,1970,HPLVPKRPDASFMA [P54368 201-214]
5,1950,ALPSPLRPPAPPLP [Q9NR83 285-299]
6,71.6,HGRGLKRPGKKGSN [Q99848 277-290]
7,108,AAPEPKRPHIAQVP [Q9Y6X8 414-427]
8,49.6,HVQSPEKPPTSPRE [BAC05287 132-146]
9,775,HGRLPARPPFYAPA [Q9Y2L9 5-19]
10,33.2,HAPRIKRPRLQVVK [Q96S08 292-305]
11,40,HILLFRRPLPKDQQ [P33552 65-78]
12,816,HLWQPKRPAVPKKA [Q96FM3 493-506]
13,117,HSFLINRPGKVKYM [Q9H5T1 190-203]
14,1790,HKAHLIRPRRLTPG [O60281 1125-1138]
15,76.9,HLSSPARPPDNLSP [Q9H7P8 659-673]
16,45.5,HPEFLSRPIKPSPP [P17812 526-539]
17,0.2,HPDLLRRPGARSTS [Q9BXK1 213-226]
18,1870,HHPWIRRPFFPFHS [P02511 6-19]
19,1270,HALHPARPARDHLD [Q9H7M8 395-408]
20,33.5,HLLLFHRPLRASGA [Q9HBK7 243-256]
21,22.2,HHHLPERPPFIPEG [O60747 405-419]

row,"normalised SPOT signal, Boehringer light units (BLU); mean over the file's lines of this peptide",Binder
1,2060,HQEKPERPLRGGKS [Q9NWA6 173-186]
2,27.4,HTVELRRPSSDMEG [O14791 6-19]
3,55.2,HRSHLRRPAAPPSP [Q8WWE0 14-27]
4,3150,HYLVPVRPRRQIVY [Q9Y4V7 156-169]
5,5.2,HGKGFSRPARPANR [O43158 529-542]
6,28.8,HLAFLKRPELGLTL [O15488 104-117]
7,11100,HGRAPRRPSGPGPP [P21917 231-244]
8,171,HVFQFTRPPRETPT [O75354 116-129]
9,4140,HIPPPPRPPKRILE [P18031 304-318]
10,4520,ALPPPPRPDRGPPG [Q02833 302-315]
11,150,HHGRIGRPPKYRKI [Q9Y4C9 401-414]
12,61.7,HTKNLLRPTKLNLQ [Q9BXU7 768-781]
13,3470,ALPRPLRPPLPPDP [O43763 237-251]
14,28.3,HLHILHRPWKSGLS [Q9P2Y4 181-194]
15,133,HDDPPQKPPRSITL [Q9Y5K9 654-668]
16,153,HILLFRRPLPKKPK [P33551 65-78]
17,794,HPGKPERPPPQGGN [P10163 94-108]
18,5490,ALPRPIRPHRNISA [O75163 275-288]
19,224,HSTGINRPKRTGSL [P28749 775-788]
20,18.7,HTAEFRRPMATGDT [Q9H6N9 66-79]
21,308,HGSFLARPSRKNQG [P29350 24-37]
